From the emibetuzumab library of Makowski et al. (2022) come the findings set out here.

B1: VH:VL chains; a variant is named by its letters at X, in order (parent)
chain 1: QVQLVQSGAEVKKPGASVKVSCKASGYTFTDYXMHWVRQAPGQGLEWMGXVNPNXXXTTYNQKFEGRVTMTTDTSTSTAYMELRSLRSDDTAVYYCARXNXLDXWGQGTTVTVSS
chain 2: DIQMTQSPSSLSASVGDRVTITCSVSSSVSSIYLHWYQQKPGKAPKLLIYSTSNLASGVPSRFSGSGSGTDFTLTISSLQPEDFATYYCQVYSGYPLTFGGGTKVEIK

The variants in this data set derive from B1. The experiment in a line: yeast display scFab, FACS + sequencing. The method, boiled down:
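Non-specific binding was called from deep sequencing of sorted yeast cells displaying a heavy-chain CDR mutant scFab library. Cells labelled with anti-Myc and biotinylated ovalbumin (260 μg/mL in PBSB, 3 h, room temperature) or soluble membrane proteins (130 μg/mL, 20 min on ice) were FACS-sorted, collecting the top 25% and bottom 10% of binders from two replicates. A sequence was positive when present in ≥3 of 4 pooled positive samples and absent from all negatives, and negative under the converse rule.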
STGGDDVY: the non-specific binding call is given as “no binding”.

Take STGRADWA: the non-specific binding call is “no binding”.

With DTGTGDGV, the non-specific binding call is on record as “no binding”.

On to DTGEDDVY, for which the non-specific binding call was “no binding”.

In the case of ATGGGYVA, the non-specific binding call is “binds”.

Consider FTGTGSGA, for which the non-specific binding call is “no binding”.

Regarding ATGEGDGV, the non-specific binding call is reported as “no binding”.

On to ATGANAAV, for which the non-specific binding call is on record as “no binding”.

For VTGRGDVF, the non-specific binding call is recorded as “no binding”.

Take VTGRGDVA: the non-specific binding call is recorded as “no binding”.

Turning to ATGGAALD, the non-specific binding call is on record as “no binding”.

Consider FTGRGAVA, for which the non-specific binding call was “binds”.

For the variant YTERAAWA, the non-specific binding call is “no binding”.

On to VTGEDSLD, for which the non-specific binding call is “no binding”.

As to VTGEDSLV, the non-specific binding call is recorded as “no binding”.

As for VTGEDSLA, the non-specific binding call was “no binding”.

On to YTGRGSAA, for which the non-specific binding call is reported as “binds”.

As for DTGGGAWD, the non-specific binding call is “no binding”.

Turning to YTEGDFAV, the non-specific binding call is recorded as “no binding”.

As for ATGGDSGD, the non-specific binding call is listed as “no binding”.

Take ATGRASLD: the non-specific binding call is given as “no binding”.

For the variant DTGTGSSA, the non-specific binding call is given as “no binding”.

As for YTGTGAVF, the non-specific binding call is on record as “no binding”.

For the variant DTGTGDWV, the non-specific binding call is listed as “no binding”.

In the case of STGKGSGV, the non-specific binding call is on record as “no binding”.

FTGEDDVY: the non-specific binding call is “no binding”.

As for VTGEDDGS, the non-specific binding call is given as “no binding”.

As to VTGEDDGD, the non-specific binding call is “no binding”.

With VTGEDSGV, the non-specific binding call is “no binding”.

In the case of VTGEADAS, the non-specific binding call is on record as “no binding”.

On to VTEEGSWV, for which the non-specific binding call is “no binding”.

As to YTERGDVY, the non-specific binding call was “no binding”.

As for YTERGDVD, the non-specific binding call was “no binding”.

On to VTGTGAGV, for which the non-specific binding call is given as “no binding”.

For FTGRAYGF, the non-specific binding call is listed as “binds”.

On to VTGTGAAV, for which the non-specific binding call was “no binding”.

VTGTGAAD: the non-specific binding call was “no binding”.

Regarding FTEGDSGY, the non-specific binding call is “no binding”.

As for VTGGDDSA, the non-specific binding call is reported as “no binding”.

In the case of ATGEGDWS, the non-specific binding call is listed as “no binding”.

With VTGGDDWV, the non-specific binding call is “no binding”.

Regarding VTGGDDWF, the non-specific binding call is on record as “no binding”.

Turning to VTGGDDWY, the non-specific binding call is given as “no binding”.

Consider STGGDDGA, for which the non-specific binding call is listed as “no binding”.

As to STGGDDGF, the non-specific binding call is “no binding”.

Take YTGATAGA: the non-specific binding call is reported as “binds”.

Turning to FTGEAAGD, the non-specific binding call was “no binding”.

Regarding DTGTGDAA, the non-specific binding call is recorded as “no binding”.

Turning to YTGGDDGF, the non-specific binding call was “no binding”.

Take STGGNDAD: the non-specific binding call is listed as “no binding”.

Take DTEEGDVA: the non-specific binding call is reported as “no binding”.

In the case of ATGGAAGD, the non-specific binding call is “no binding”.

For FTGGASGV chain 1 V111I, the non-specific binding call is recorded as “no binding”.

With YTGKSVAV, the non-specific binding call is recorded as “binds”.

On to YTERNFGV, for which the non-specific binding call is listed as “binds”.

Consider VTEENDGY, for which the non-specific binding call is “no binding”.

For VTGTGSSA, the non-specific binding call is recorded as “no binding”.

For VTGTGSSD, the non-specific binding call is on record as “no binding”.

In the case of VTEGGDAA, the non-specific binding call was “no binding”.

On to YTGGADAV, for which the non-specific binding call is “no binding”.

Turning to VTGEDDAV, the non-specific binding call was “no binding”.

For VTGEDDAA, the non-specific binding call is “no binding”.

Consider FTETGSVD, for which the non-specific binding call is on record as “no binding”.

As to DTERGSLV, the non-specific binding call is “no binding”.

In the case of VTEGDAGA, the non-specific binding call is reported as “no binding”.

Take VTEGDAGD: the non-specific binding call is “no binding”.

Turning to DTGGDDGF, the non-specific binding call was “no binding”.

For DTGTGSVD, the non-specific binding call is listed as “no binding”.

For YTGEGDGV, the non-specific binding call is on record as “no binding”.

Consider FTGRGAAA, for which the non-specific binding call is reported as “binds”.

For VTGRGDLA, the non-specific binding call is given as “no binding”.

As to STEGDAGA, the non-specific binding call was “no binding”.

Take VTGESAAV: the non-specific binding call is “no binding”.

In the case of ATGGDDWF, the non-specific binding call was “no binding”.

On to VTETGDSV, for which the non-specific binding call was “no binding”.

Regarding FTEEGAGD, the non-specific binding call is “no binding”.

For YTGGDSVA, the non-specific binding call is “no binding”.

Consider YTGGDSVD, for which the non-specific binding call is reported as “no binding”.

YTGRGSLD: the non-specific binding call is “binds”.

Turning to VTEEGDWV, the non-specific binding call is “no binding”.

Turning to VTGKGDGV, the non-specific binding call is on record as “no binding”.

As to YTERGFGV, the non-specific binding call is recorded as “no binding”.

With VTEGGDVY, the non-specific binding call is “no binding”.

For the variant VTEGGDVA, the non-specific binding call is on record as “no binding”.

With VTGEDAVV, the non-specific binding call is listed as “no binding”.

As for VTGEGALV, the non-specific binding call was “no binding”.

Take VTGGDSGD: the non-specific binding call is on record as “no binding”.

Regarding DTEGDAGD, the non-specific binding call is “no binding”.

For VTGTASSV, the non-specific binding call was “no binding”.

For FTGRGAGV, the non-specific binding call is reported as “binds”.

Turning to VTGGDSVD, the non-specific binding call is recorded as “no binding”.

For STGTGALA, the non-specific binding call was “no binding”.

Turning to FTGRAAAV, the non-specific binding call was “no binding”.

For the variant VTGTGDAD, the non-specific binding call is listed as “no binding”.

As for VTGTGDAV, the non-specific binding call is given as “no binding”.

With DTGTGDVF, the non-specific binding call was “no binding”.

DTGTGDVA: the non-specific binding call was “no binding”.

Turning to VTEGDDVF, the non-specific binding call was “no binding”.

As for FTGGDALA, the non-specific binding call was “no binding”.

On to FTEEGAVD, for which the non-specific binding call was “no binding”.

For VTERSALD, the non-specific binding call is “binds”.

On to VTGGDDVY, for which the non-specific binding call is “no binding”.

In the case of DTGTGASD, the non-specific binding call is recorded as “no binding”.

For the variant ATGANSLD, the non-specific binding call was “no binding”.

In the case of ATGRADWA, the non-specific binding call is listed as “no binding”.

Take DTGTGAGD: the non-specific binding call is listed as “no binding”.

For DTGTGAGV, the non-specific binding call is recorded as “no binding”.

VTEEGSSV: the non-specific binding call was “no binding”.

As to ATGANAGD, the non-specific binding call is listed as “no binding”.
